# Article PMC9163697, “Mechanistic insights into the activation of the IKK kinase complex by the Kaposi’s sarcoma herpes virus oncoprotein vFLIP” (The Journal of Biological Chemistry, 2022)
# Key:
# [1] = molecular target: the molecule itself; assay: native MS; proteins and complexes exchanged into 200 mM ammonium acetate pH 8.5, 3.2 μM, nanoelectrospray, Synapt QToF; collision-induced dissociation of selected species
# WT vFLIP(1–177) [2] = molecular target: T1, WT vFLIP(1–177) (Kaposi's sarcoma-associated herpes …, UniProt Q76RF1 1-177); assay: as above; details: both partners purified
# T1 construct: vFLIP of the Kaposi's sarcoma-associated herpes virus (KSHV), residues 1-177; also called recombinant vFLIP; source: mutants said to be expressed in E. coli
# WT vFLIP(1–177) [3] = molecular target: T1, WT vFLIP(1–177); assay: native gel or EMSA; blue native gel (4–20%), 8–10 μg of purified complexes of IKKγ(150–272) with vFLIP or complexes assembled from the concentrated proteins; bands excised and analysed by SDS-PAGE; details: both partners purified
binder,measurement,setting,value
"IKKγ(150–272) (domain or fragment, UniProt Q9Y6K9 150-272, looked up, IKKγ (Nemo), regulatory subunit of the IKK kinase complex, residues 150-272; also called Nemo; WT IKKγ) LGELQESQSRLEAATKECQALEGRARAASEQARQLESEREALQQQHSVQVDQLRMQGQSVEAALRMERQAASEEKRKLAQLQVAYHQLFQEYDNHIKSSVVGSERKRGMQLEDLKQQLQQAEE",binding result,[1],binds
same,stoichiometry N,WT vFLIP(1–177) [2],0.5 vFLIP per IKKγ
same,stoichiometry N,WT vFLIP(1–177) [3],1 vFLIP per IKKγ
